What was measured:
[1] = Melting temperature (Tm) from melting curve, absorbance at 260 nm; assay type: physicochemical; details: sodium concentration of 5 mM
Protocol: Each DNA preparation was prepared in the same manner as in Example 1 by using the sequences in Table 1. The absorbance of polypodna or other DNA preparations at 260 nm was measured by using a Shimadzu UV-1600 PC spectrometer (Kyoto, Japan) equipped with a TMSPC-8 temperature controller 18. The melting temperature (Tm) was obtained from the melting curve at the sodium concentration of 5 mM in each preparation.

RAW264.7 cells [2] = assay: Release of TNF-α from RAW264.7 cells (ELISA); assay type: cell-based, murine; details: 0.5, 1 or 2 μg/ml, 8 hours
Protocol: In a RPMI1640 medium to which 10% heat inactivated FBS, 0.15% sodium bicarbonate, 100 units/ml penicillin, […] streptomycin and 2 mML-glutamine were added, murine macrophage-like RAW264.7 cells were proliferated in humidified air containing 5% CO2 at 37° C. Subsequently, cells were seeded on a 24-well or 96-well culture plate at a density of 5×10^5 cells/well, and cultured for 24 hours before use.
The RAW264.7 cells were seeded on a 24-well plate at a density of 2.5×10^5 cells/well, and incubated for 24 hours before treatment. Then, ssDNA, dsDNA, or several kinds of polypodnas diluted in 0.5 ml of Opti-MEM were added to the cells at a final concentration of 0.5, 1 or 2 μg/ml. The cells were incubated for 8 hours, the supernatant was recovered and stored at −70° C. before use. The concentrations of TNF-α and IL-6 in the supernatant were measured by Enzyme-Linked Immunosorbent Assay (ELISA) using an OptEIA™ set (Pharmingen, San Diego, Calif., USA).
The same experiment as in Example 22 was carried out except that each poolypodna preparation was prepared in the same manner as in Example 1 by using the sequences in Table 1. However, the added DNA was equal amount in each case.

[3] = tested on: atopic dermatitis model mouse; assay: Application to atopic dermatitis model mouse; assay type: in vivo; details: vs Tetrapodna without cholesterol modification
RAW264.7 cells [4] = assay: Uptake of cholesterol-modified Tetrapodna by cells; assay type: cell-based
Protocol: In order to examine applicability of nucleic acid having a modifying group, Tetrapodna using cholesterol-modified DNA was prepared. […] Furthermore, uptake of each Tetrapodna by RAW264.7 cells was measured.

[5] = Evaluation of gelation at various DNA concentrations and NaCl concentrations; assay type: physicochemical; set-up: key: ◯: the mark “∘” is given to cases in which gelation was observed; X: the mark “x” is given to cases of a solution state (sol-state)
Protocol: […] The gel formation and the gel strength were measured by a gel strength analyzer (gel strength meter, Nakayamadenki Co., Ltd, Osaka).
Specifically, by changing the DNA concentrations of an aqueous solution of Tripodona (4-18-18) (X=4) (SEQ ID NOs.: 1, 2 and 3), Tetrapodna (4-18-18) (X=4) (SEQ ID NOs.: 2, 4, 5 and 6), Hexapodna (4-18-18) (X=4) (SEQ ID NOs.: 2, 3, 4, 7, 9 and 10) and Tetrapodna (8-16-16) (X=8) (SEQ ID NOs.: 22, 23, 24 and 25) as shown in the lines of Table 4, and by changing the NaCl concentration as shown in the rows of Table 4, whether or not a gel is formed at various DNA concentrations and NaCl concentrations was evaluated. The results are shown such that the mark “∘” is given to cases in which gelation was observed, and the mark “x” is given to cases of a solution state (sol-state).

[6] = Temperature conditions for gel formation; assay type: physicochemical; details: NaCl 150 mM
Protocol: Furthermore, we investigated a possibility that temperature conditions are also involved in gelation. Tetrapodna (4-18-18) (SEQ ID NOs.: 2, 4, 5 and 6), Hexapodna (4-18-18) (SEQ ID NOs.: 2, 3, 4, 7, 9 and 10) and Tetrapodna (8-16-16) (SEQ ID NOs.: 22, 23, 24 and 25) were used to examine the temperature conditions for allowing a gel be present or a sol to be present by fixing the NaCl concentration at 150 mM and changing the DNA concentration variously.

[7] = Formation of hydrogel from nucleic acid units without ligase; assay type: physicochemical; details: without DNA ligase
Protocol: A NaCl solution was added to an ODN solution (polypodna) such that the final Na^+ concentration was 5 to 150 mM. The gel formation and the gel strength were measured by a gel strength analyzer (gel strength meter, Nakayamadenki Co., Ltd, Osaka).
A structure to be a hydrogel (a nucleic acid monomer and an estimated nucleic acid unit) in conditions at room temperature, at 5 mM to 150 mM sodium chloride concentration (150 mM is substantially physiological concentration), and not containing a DNA ligase was elucidated. […] For convenience, nucleic acid units estimated to be formed according to the number of nucleic acid monomers capable of constituting the nucleic acid unit were represented by xxxpodna (xxxpod-like structure forming nucleic acid, xxx is substituted by tri (3), tetra (4) and the like, according to the number of nucleic acid monomers capable of constituting the nucleic acid unit). In Table 2 described below, xxxpodna is an estimated nucleic acid unit, and each of xxx-Y-N is a nucleic acid monomer that can be a constituent element of the nucleic acid unit (xxxpodna) which is mentioned above thereof. When the descriptions of Ys are different from each other, different nucleic acid units can be formed. N denotes numbering of nucleic acid monomers constituting each of the estimated nucleic acid units.
Unlike (1-1) described above, gelation can be controlled by using a nucleic acid monomer including cohesive protruding ends which are not attached to themselves (that is, not palindrome sequence).

[8] = Percentage of remaining gels with the passage of time; assay type: physicochemical; details: DNA 0.5 mM
Protocol: Gels were formed by adjusting the NaCl concentration at 150 mM in an aqueous solution containing Tetrapodna (12-14-14) (SEQ ID NOs.: 30, 31, 32 and 33) at a DNA concentration of 0.1 mM, 0.25 mM or 0.5 mM, and the percentage of the remaining gels was measured with the passage of time. The results are shown in a graph in the left upper side of FIG. 17.
Gels were formed in conditions at a certain DNA concentration (0.5 mM) and a certain NaCl concentration (150 mM), and the percentage of the remaining gels was measured with the passage of time by using Tetrapodna (respectively, SEQ ID NOs.: 2, 4, 5 and 6, SEQ ID NOs.: 18, 19, 20 and 21, SEQ ID NOs.: 22, 23, 24 and 25, SEQ ID NOs.: 26, 27, 28 and 29, as well as SEQ ID NOs.: 30, 31, 32 and 33) having various lengths of the cohesive protruding end (4, 6, 8, 10 or 12 bases). The results are shown in a graph in the left lower side of FIG. 17. […] When 12 hours had passed, the percentage of the remaining gels became about 50%.
Gels were formed by variously changing the NaCl concentrations (5 mM, 50 mM, 100 mM or 150 mM) of an aqueous solution containing Tetrapodna (12-14-14) (SEQ ID NOs.: 30, 31, 32 and 33) at a DNA concentration of 0.5 mM, and the percentage of the remaining gels was measured with the passage of time. The results are shown in a graph in the right upper side of FIG. 17. […] At a low salt concentration (5 mM), almost all the formed gels became in a sol state when about 6 hours had passed. When the salt concentration was increased to 50 mM, solation tendency was weakened, a change from a gel into a sol occurred moderately (about 40% when 12 hours had passed).
The percentage of the remaining gels was measured with the passage of time in the same manner as in (8-3) except that Tetrapodna (4-18-18) (SEQ ID NOs.: 2, 4, 5 and 6) was used instead of Tetrapodna (12-14-14) (SEQ ID NOs.: 30, 31, 32 and 33). The results are shown in a graph in the right lower side of FIG. 17. […] In (8-3), Tetrapodna (12-14-14) (the length of the cohesive protruding end is 12 bases) was used. In (8-4), Tetrapodna (4-18-18) (the length of the cohesive protruding end is 4 bases) was used.

[9] = Release of encapsulated OVA from gel; assay type: physicochemical; details: DNA 0.5 mM, OVA 2.5 μg/μl
Protocol: By controlling the nature and salt concentration of protruding ends of Tetrapodna, the change of the releasing rate of an encapsulated compound in a gel was examined. Specifically, Tetrapodna (4-18-18) (SEQ ID NOs.: 2, 4, 5 and 6) including a cohesive protruding end and Tetrapodna (4-18-18) (SEQ ID NOs.: 58, 59, 60 and 61) as a control including a non-cohesive protruding end were used. In an aqueous solution of Tetrapodna which had been prepared such that the DNA concentration was 0.5 mM, the NaCl concentration was adjusted to 5 mM or 150 mM. When the NaCl concentration was increased, egg albumin (OVA, concentration of 2.5 μg/μl) was added as an encapsulated substance to cause gelation, and then the percentage of OVA released from the gel with the passage of time was measured.

[10] = Gel formation in a living body after subcutaneous injection of sol; assay type: in vivo; details: total DNA 2 mM, NaCl 5 mM, back of mouse
Excerpt: The hydrogel produced in Example 1 was able to be prepared in a sol state by appropriately adjusting conditions. Therefore, the hydrogel was able to be administered in a living body by injection. […] Thus, it was confirmed that a gel is formed in a living body only by preparing the hydrogel in accordance with the present invention in a sol state and administering the hydrogel to a living body.

[11] = tested on: mouse dendritic cell DC2.4; assay: Stimulation of dendritic cells by gel; assay type: cell-based; details: gel brought into contact with DC2.4
splenocytes = assay: IFN-γ production by splenocytes after immunization with OVA in gel; assay type: in vivo, mouse; details: 100 μg OVA + 100 μg DNA, spleen on Day 14, vs only OVA

B1: dsDNA36: double strand of dsDNA36-1 and dsDNA36-2, SEQ ID Nos. 108 and 109 (nucleic acid)
chain 1: TCGCTGACGTTGCAGACATCACGTTGACGCTGTCGA
chain 2: TCGACAGCGTCAACGTGATGTCTGCAACGTCAGCGA
modifications: unmodified DNA
- Tm [1]: 66.5 °C
- TNF-α release (RAW264.7 cells [2]): the TNF-α release hardly occurred

B2: Chol-CpG DNA: Tetrapodna (SEQ ID NOs.: 2, 4, 5 and 6) which contains a cholesterol-modified nucleic acid monomer and a CpG motif (conjugate)
DNA 1: ACGTTCGACAGCGTCAACGTGAAACGTGAAGCGTCTGCGA
DNA 2: ACGTTCGCTGACGTTGCAGACATCACGTTGACGCTGTCGA
DNA 3: ACGTTCGCAGACGCTTCACGTTGCAGACAGACGTTGACGA
DNA 4: ACGTTCGTCAACGTCTGTCTGCTGTCTGCAACGTCAGCGA
modifications: DNA, phosphodiester; one monomer cholesterol-modified, strand and position not given here
- tissue transferability ([3]; applied to skin): increased
- skin inflammation [3]: better suppressed
- uptake by RAW264.7 cells (RAW264.7 cells [4]): incorporated into RAW264.7 cells better than Tetrapodna as a control which does not have cholesterol modification

B3: Tetrapodna(4-18-18): four ODNs, SEQ ID NOs.: 2, 4, 5 and 6, 4-base cohesive protruding end, contains CpG motif (nucleic acid)
DNA 1: ACGTTCGACAGCGTCAACGTGAAACGTGAAGCGTCTGCGA
DNA 2: ACGTTCGCTGACGTTGCAGACATCACGTTGACGCTGTCGA
DNA 3: ACGTTCGCAGACGCTTCACGTTGCAGACAGACGTTGACGA
DNA 4: ACGTTCGTCAACGTCTGTCTGCTGTCTGCAACGTCAGCGA
modifications: unmodified DNA
- gelation ([5]; Na+ 2 mM, DNA 0.8 mM): ◯
- gelation ([5]; Na+ 20 mM, DNA 0.6 mM): X
- gelation ([5]; Na+ 20 mM, DNA 0.7 mM): X
- gelation ([5]; Na+ 50 mM, DNA 0.6 mM): ◯
- gelation ([5]; Na+ 50 mM, DNA 0.7 mM): ◯
- gelation ([5]; Na+ 100 mM, DNA 0.5 mM): X
- gelation ([5]; Na+ 150 mM, DNA 0.4 mM): X
- gelation ([5]; Na+ 150 mM, DNA 0.5 mM): ◯
- temperature at which gel is present ([6]; DNA concentration 0.4-0.5 mM): gel at 45 °C
- temperature at which sol is present ([6]; DNA concentration 0.4-0.5 mM): sol at 55 °C
- temperature at which gel is present ([6]; DNA concentration 0.6-0.8 mM): gel at 55 °C
- temperature at which sol is present ([6]; DNA concentration 0.6-0.8 mM): sol at 65 °C
- gel formation [7]: gels can be prepared
- percentage of the remaining gels with the passage of time ([8]; NaCl 150 mM): a gel became a sol with the passage of time
- percentage of the remaining gels ([8]; NaCl 150 mM, 12 hours): about 50%
- percentage of the remaining gels, dependence on salt concentration ([8]; NaCl 5, 50, 100 or 150 mM): as the salt concentration is higher, it tends to be present not in a sol but in a gel
- release of OVA from the gel ([9]; NaCl 5 mM): all OVA was released for a short time
- percentage of OVA released ([9]; NaCl 150 mM, 24 hours): about 60%
- gel formation in a living body [10]: gelation occurred in a living body after administration
- immunological stimulation of dendritic cell [11]: significantly immunologically stimulated a mouse dendritic cell
- production of IFN-γ by splenocytes stimulated with OVA (splenocytes): remarkable increase in production amount of IFN-γ
